Test results as given in publication PMC8008698.

Molecular target: SARS 2-Helix (single-chain fusion core of SARS-CoV spike protein: HR1, 22-amino acid linker, HR2) (SARS coronavirus GZ02)
Assay: crystal structure

## SARS 2-Helix (single-chain fusion core of SARS-CoV spike protein: HR1, 22-amino acid linker, HR2) (domain or fragment)
  stoichiometry N: 3
